T1: AORAa (Aor(AB)nC complex; FAD-containing subunit AorC) (Aromatoleum aromaticum, UniProt Q5P142)
T1 construct: same complex as P1, site in AorC; N-terminal twin-Strep-tag on AorA; expressed in Aromatoleum evansii; modelled Aor(AB)2C; with Aldehyde oxidoreductase, polyferredoxin-like iron-sulfur subunit AorA; Aldehyde oxidoreductase, tungsten-containing catalytic subunit AorB (aldehyde:ferredoxin oxidoreductase)
T1 sequence (Q5P142 1-424): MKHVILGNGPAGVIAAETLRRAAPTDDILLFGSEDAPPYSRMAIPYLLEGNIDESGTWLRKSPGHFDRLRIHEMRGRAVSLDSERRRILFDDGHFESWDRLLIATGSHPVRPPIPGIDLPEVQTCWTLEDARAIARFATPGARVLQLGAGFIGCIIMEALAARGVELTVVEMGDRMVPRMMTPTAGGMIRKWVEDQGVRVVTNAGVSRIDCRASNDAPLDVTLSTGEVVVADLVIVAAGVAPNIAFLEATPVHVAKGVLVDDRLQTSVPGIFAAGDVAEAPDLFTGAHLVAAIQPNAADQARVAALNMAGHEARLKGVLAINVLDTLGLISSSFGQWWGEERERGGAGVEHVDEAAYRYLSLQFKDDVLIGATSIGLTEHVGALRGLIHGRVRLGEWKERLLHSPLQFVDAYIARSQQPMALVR
T1 sequence (Q5P144 1-158 partner): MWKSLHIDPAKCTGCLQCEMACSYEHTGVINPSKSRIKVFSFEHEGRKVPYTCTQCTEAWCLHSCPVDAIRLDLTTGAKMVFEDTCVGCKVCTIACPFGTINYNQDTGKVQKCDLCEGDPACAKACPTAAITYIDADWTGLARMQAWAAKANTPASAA
T1 sequence (Q5P143 1-616 partner): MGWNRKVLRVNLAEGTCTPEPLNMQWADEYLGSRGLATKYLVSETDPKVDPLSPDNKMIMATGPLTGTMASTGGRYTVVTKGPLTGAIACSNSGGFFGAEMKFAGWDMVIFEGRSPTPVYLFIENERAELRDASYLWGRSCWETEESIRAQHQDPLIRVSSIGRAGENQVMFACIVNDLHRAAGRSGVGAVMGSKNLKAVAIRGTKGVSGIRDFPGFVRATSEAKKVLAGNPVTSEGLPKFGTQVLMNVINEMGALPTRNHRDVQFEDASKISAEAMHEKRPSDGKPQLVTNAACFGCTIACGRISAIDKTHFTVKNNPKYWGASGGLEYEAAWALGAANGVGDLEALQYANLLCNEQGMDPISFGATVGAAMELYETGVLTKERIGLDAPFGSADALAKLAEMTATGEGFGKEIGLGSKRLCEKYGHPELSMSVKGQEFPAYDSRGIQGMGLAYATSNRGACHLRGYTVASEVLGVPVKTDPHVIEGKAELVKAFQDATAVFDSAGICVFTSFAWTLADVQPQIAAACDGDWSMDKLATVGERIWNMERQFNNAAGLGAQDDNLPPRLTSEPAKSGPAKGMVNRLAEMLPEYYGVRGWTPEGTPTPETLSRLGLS

T2: AorB, catalytic tungsten-cofactor-containing subunit of the aldehyde oxidoreductase from Aromatoleum … (Aromatoleum aromaticum, UniProt Q5P143 1-616)
T2 construct: AorB of Aromatoleum aromaticum; benzoate seen in the active site; also called catalytic subunit; source: Aromatoleum evansii, heterologous expression of the AOR plasmid; Superdex 200 gel filtration for the wild-type complex, not for Δhelix-AOR
T2 sequence: T1 sequence (Q5P143 1-616 partner)

T3: AorA of the variant Δhelix-AOR, lacking the AorA residues from 138 to the C terminus (Aromatoleum aromaticum (strain DSM …, UniProt Q5P144))
T3 chain: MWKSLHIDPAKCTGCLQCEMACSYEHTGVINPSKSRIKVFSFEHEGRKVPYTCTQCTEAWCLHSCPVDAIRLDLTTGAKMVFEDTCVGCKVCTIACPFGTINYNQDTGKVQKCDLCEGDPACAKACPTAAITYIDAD

B1: AorA, polyferredoxin-like small subunit of the aldehyde oxidoreductase from Aromatoleum aromaticum (AORAa) (natural protein)
chain: T1 sequence (Q5P144 1-158 partner)
notes: Two to four copies per Aor(AB)nC complex; Carries four Fe4S4 clusters; also called small subunit AorA; electron transfer subunit; source: Aromatoleum evansii, heterologous expression of the AOR plasmid
B2: AorC, FAD-containing NAD-binding subunit of the aldehyde oxidoreductase from Aromatoleum aromaticum (AORAa) (natural protein)
chain: T1 sequence (Q5P142 1-424)
notes: AorC of Aromatoleum aromaticum, Rossmann fold with an extended C-terminal domain of three α helices; A single copy per Aor(AB)nC complex; also called FAD-containing subunit; source: Aromatoleum evansii, heterologous expression of the AOR plasmid; Superdex 200 gel filtration for the wild-type complex, not for Δhelix-AOR
B3: AorB, catalytic tungsten-cofactor-containing subunit of the aldehyde oxidoreductase from Aromatoleum aromaticum (AORAa) (protein)
chain: T1 sequence (Q5P143 1-616 partner)

Values joined by “and” are separate entries in the source; they are usually repeats but may differ in a detail not shown here. Equal values may be shown once.

Data set [1] deals with T1, AORAa (Aor(AB)nC complex; FAD-containing subunit AorC). The experiment in a line: cryo-EM structure, […] A. Format: binding. Conditions: bound in AorC; Arg41 and Glu294 (Gln294 in figure legend).
Data set [2] addresses T4, AORAa (Aor(AB)nC complex; FAD-containing subunit AorC) (Aromatoleum aromaticum, UniProt Q5P142).
T4 construct: same complex as P1, site in AorC; N-terminal twin-Strep-tag on AorA; expressed in Aromatoleum evansii; modelled Aor(AB)2C; with Aldehyde oxidoreductase, polyferredoxin-like iron-sulfur subunit AorA; Aldehyde oxidoreductase, tungsten-containing catalytic subunit AorB (aldehyde:ferredoxin oxidoreductase)
Description: spectrophotometric specific activity. The class given is biochemical. Conditions: hydrogen as electron donor; deletion-helix AOR.
T4 sequence (Q5P144 entry or part of it DEL138-156, one chain of several, further chain): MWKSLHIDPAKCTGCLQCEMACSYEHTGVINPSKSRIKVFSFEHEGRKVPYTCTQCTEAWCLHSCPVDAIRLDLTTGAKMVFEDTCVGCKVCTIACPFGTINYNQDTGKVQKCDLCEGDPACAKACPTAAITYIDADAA

Data set [3] addresses T2, AorB, catalytic …. Description: cryo-EM structure; purified AORAa complex, 0.7 mg/ml, 50 mM Hepes pH 7.5, glycerol below 2%; native and BS3 cross-linked samples prepared; 3.22 Å map of an Aor(AB)3C complex, model of Aor(AB)2C. As to conditions: both partners purified.
For data set [4], the target named is B2. Described as above. As to conditions: both partners purified.
Data set [5] deals with the molecule itself. Description: mass photometry; OneMP mass photometer, 10 mM tris pH 8.0, 100 mM KCl, 0.1 mM EDTA, room temperature, sample diluted 10-fold just before measurement; 50 nM in Fig. 2D, E.
Data set [6] deals with T3, AorA of the variant Δhelix-AOR, lacking …. Description: mass photometry of co-purified complex; seen only within the AorABC complex, with AorB present.
The target is the same in data set [7]. Description: mass photometry of co-purified complex.

For `Cc1cc2nc3c(=O)[nH]c(=O)nc-3n(C[C@H](O)[C@H](O)[C@H](O)COP(=O)(O)OP(=O)(O)OC[C@H]3O[C@@H](n4cnc5c(N)ncnc54)[C@H](O)[C@@H]3O)c2cc1C` [FAD], in data set [1], the “cryo-EM structure, 3.22 A” value is recorded as “The FAD cofactor was well resolved in the electron density”.

In the case of `NC(=O)c1ccc[n+]([C@@H]2O[C@H](COP(=O)(O)OP(=O)(O)OC[C@H]3O[C@@H](n4cnc5c(N)ncnc54)[C@H](O)[C@@H]3O)[C@@H](O)[C@H]2O)c1` [NAD^+], the specific activity entry in data set [2] is “NAD^+ reduction with hydrogen as an electron donor”.

Usually stoichiometry N stands for a count of units in the complex or per binding partner. As for B1, the binding result in data set [3] and in data set [4] was “binds” throughout. Also, the “stoichiometry N” value in data set [5] was 2 and 3 and 4.

For B2, the binding result in data set [3] and in data set [6] was “binds” in each case.

As for B3, in data set [7], the binding result was “binds”.

(Values after PMC10413684, “A bacterial tungsten-containing aldehyde oxidoreductase forms an enzymatic decorated protein nanowire” (Science Advances, 2023).)
